Earlier results on two substances are cited in paper PMC5668312.

Usually Kd stands for the concentration at which binding is half-saturated.

Data set [1] has as its target Vps2 (Saccharomyces cerevisiae) (UniProt P36108).
Data set [2] has as its target CHMP1B (Homo sapiens) (UniProt Q7LBR1).

CHMP1B (Homo sapiens), sequence (Q7LBR1 whole entry): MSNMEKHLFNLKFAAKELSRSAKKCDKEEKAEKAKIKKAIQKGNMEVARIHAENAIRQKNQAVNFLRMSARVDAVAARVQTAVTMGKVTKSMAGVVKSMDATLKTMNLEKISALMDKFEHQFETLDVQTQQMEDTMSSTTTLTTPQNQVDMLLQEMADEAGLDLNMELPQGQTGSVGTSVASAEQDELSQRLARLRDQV
Vps2 (Saccharomyces cerevisiae), sequence (P36108 whole entry): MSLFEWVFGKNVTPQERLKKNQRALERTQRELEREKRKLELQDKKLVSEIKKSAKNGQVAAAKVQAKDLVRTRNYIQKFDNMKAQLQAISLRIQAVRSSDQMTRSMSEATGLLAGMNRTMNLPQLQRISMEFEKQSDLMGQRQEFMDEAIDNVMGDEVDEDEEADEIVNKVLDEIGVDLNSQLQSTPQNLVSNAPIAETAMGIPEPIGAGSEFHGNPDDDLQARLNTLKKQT
spastin MIT, sequence (Q9UBP0 117-198): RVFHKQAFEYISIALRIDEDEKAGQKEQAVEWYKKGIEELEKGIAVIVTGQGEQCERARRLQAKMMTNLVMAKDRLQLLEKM
Vps4 MIT, sequence (P52917 1-83): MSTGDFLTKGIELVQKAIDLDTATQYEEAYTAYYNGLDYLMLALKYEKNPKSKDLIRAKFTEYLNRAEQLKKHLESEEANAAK

For Vps4 MIT (from UniProt P52917), the dissociation constant (Kd) in data set [1] was 30 µM.
spastin MIT (from UniProt Q9UBP0): the Kd in data set [2] was 12 µM.
